Results as given in patent US20140199692A1.

Molecular target: eukaryotic translation initiation factor eIF4E (endogenous, in lysates of human cell lines) (UniProt P06730)
Assay: immunoprecipitation of eIF4E from nuclear lysates

Chain of eukaryotic translation initiation factor eIF4E (endogenous, in lysates of human cell lines) (P06730 2-217 limits assumed): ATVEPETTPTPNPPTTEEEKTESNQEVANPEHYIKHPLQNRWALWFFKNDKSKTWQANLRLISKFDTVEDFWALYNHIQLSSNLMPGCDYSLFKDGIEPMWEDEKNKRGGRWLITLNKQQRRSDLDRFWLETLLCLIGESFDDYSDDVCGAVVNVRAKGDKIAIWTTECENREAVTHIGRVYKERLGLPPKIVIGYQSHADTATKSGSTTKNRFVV

mouse monoclonal anti-eIF4E Ab (BD Transduction Laboratories) (antibody)
efficiency of IP: < 80%
